# Results taken from patent US4388232A, “Method of producing plasma fractions free of side-effects using fast-reacting antithrombin” (Immuno Aktiengesellschaft fur Chemisch Medizinische Produkte, priority 1979, dated 1983).
# Test system: NMRI mice
# Assay: LD50 test (toxicity of a preparation)
# Format: in vivo, mouse (NMRI)
# Conditions: intravenous
# Procedure: The LD50 -test serves for determining the toxicity of a preparation. LD50 is the dose at which 50% of the animals die under experimental conditions. The preparation is intravenously injected in at least three dosages into ten NMRI ([…]) mice each, having a minimum body weight of 20 g. After an observation time of 7 days the living animals per dosage group are counted. The LD50 is calculated in accordance with Wilson and Worcester, Proc. Nat. Acad. Sci. U.S.A. 29, 114 (1943).
substance,measurement,setting,value
"Example 11: C1-esterase inhibitor, prepared with antithrombin III and heparin",tolerance in LD50 test,7 days observation,excellently tolerated
same,LD50,"7 days observation, 5,300 = maximum injectable amount C1-esterase-inhibitor","> 5,300 units per kg body weight"
